Source: patent US10800847
Values belong to the substance of their own block, whether it stands above or below them.

Assays:
HLA-B*1402 (B65) (human) = assay: iBead MFI against regular-bead MFI, IVIg diluted 1:4
HLA-B*1510 (B71) (human) = assay: as above
HLA-B*1301 (B13) (human) = assay: as above
HLA-B*0801 (B8) (human) = assay: as above
HLA-B*0702 (B7) (human) = assay: as above
HLA-B*1516 (B63) (human) = assay: as above
[1] = molecular target: HLA-A*3301 (A33) single antigen on beads (human); assay: Luminex iBeads (#6), IVIg 1:4
[2] = molecular target: HLA-A*6602 (A66) single antigen on beads (human); assay: Luminex iBeads (#6), IVIg 1:4
[3] = molecular target: HLA-A*3201 (A32) single antigen on beads (human); assay: Luminex iBeads (#6), IVIg 1:4
[4] = molecular target: HLA-A*3002 (A30) single antigen on beads (human); assay: Luminex iBeads (#6), IVIg 1:4
[5] = molecular target: HLA-A*2902 (A29) single antigen on beads (human); assay: Luminex iBeads (#6), IVIg 1:4
[6] = molecular target: HLA-A*4301 (A43) single antigen on beads (human); assay: Luminex iBeads (#6), IVIg 1:4
[7] = molecular target: HLA-A*6601 (A66) single antigen on beads (human); assay: Luminex iBeads (#6), IVIg 1:4
[8] = molecular target: HLA-A*3001 (A30) single antigen on beads (human); assay: Luminex iBeads (#6), IVIg 1:4
[9] = molecular target: HLA-A*3303 (A33) single antigen on beads (human); assay: Luminex iBeads (#6), IVIg 1:4
[10] = molecular target: HLA-A*3402 (A34) single antigen on beads (human); assay: Luminex iBeads (#6), IVIg 1:4
[11] = molecular target: HLA-A*3601 (A36) single antigen on beads (human); assay: Luminex iBeads (#6), IVIg 1:4
[12] = molecular target: HLA-A*6801 (A68) single antigen on beads (human); assay: Luminex iBeads (#6), IVIg 1:4
[13] = molecular target: HLA-A*3101 (A31) single antigen on beads (human); assay: Luminex iBeads (#6), IVIg 1:4
[14] = molecular target: HLA-A*6901 (A69) single antigen on Luminex beads (human); assay: Luminex single antigen bead assay, iBeads vs regular beads, IVIg 1:4
[15] = molecular target: HLA-A*8001 (A80) single antigen on Luminex beads (human); assay: as above
[16] = molecular target: HLA-A*6802 (A68) single antigen on Luminex beads (human); assay: as above
[17] = molecular target: HLA-A*6901 (A69) single antigen on Luminex beads (human); assay: Luminex single antigen bead assay, regular beads (#7), IVIg 1:4
[18] = molecular target: HLA-A*7401 (A74) single antigen on Luminex beads (human); assay: as above
[19] = molecular target: HLA-B*4001 (B60) single antigen on Luminex beads (human); assay: Luminex single antigen, regular beads (#7), IVIg 1:8
[20] = molecular target: HLA-B*4002 (B61) single antigen on Luminex beads (human); assay: as above
[21] = molecular target: HLA-B*4101 (B41) single antigen on Luminex beads (human); assay: as above
[22] = molecular target: HLA-B*3701 (B37) single antigen on Luminex beads (human); assay: as above
[23] = molecular target: HLA-B*4701 (B47) single antigen on Luminex beads (human); assay: as above
[24] = molecular target: HLA-B*4006 (B61) single antigen on Luminex beads (human); assay: as above
[25] = molecular target: HLA-B*4601 (B46) single antigen on Luminex beads (human); assay: as above
[26] = molecular target: HLA-B*3901 (B39) single antigen on Luminex beads (human); assay: as above
[27] = molecular target: HLA-B*4501 (B45) single antigen on Luminex beads (human); assay: as above
[28] = molecular target: HLA-B*2705 (B27) single antigen on Luminex beads (human); assay: as above
[29] = molecular target: HLA-B*2708 (B27) single antigen on Luminex beads (human); assay: as above
[30] = molecular target: HLA-B*4201 (B42) single antigen on Luminex beads (human); assay: as above
[31] = molecular target: HLA-B*3501 (B35) single antigen on Luminex beads (human); assay: as above
[32] = molecular target: HLA-B*4402 (B44) single antigen on Luminex beads (human); assay: as above
[33] = molecular target: HLA-B*3801 (B38) single antigen on Luminex beads (human); assay: as above
[34] = molecular target: HLA-A*0301 (A3) on single antigen beads (human) (UniProt P04439); assay: Luminex single antigen beads, iBeads (#6), 1:8
[35] = molecular target: Albumin on negative control beads (serum albumin, HSA/BSA) (human or bovine); assay: Luminex single antigen beads, iBeads (#6), 1:8
[36] = molecular target: HLA-A*0301 (A3) on single antigen beads (human) (UniProt P04439); assay: Luminex, iBead MFI against regular bead MFI, 1:8

Difference % (iBead vs regular bead) (HLA-B*1402 (B65) (human)): -36%
Difference % (iBead vs regular bead) (HLA-B*1510 (B71) (human)): 13%
Difference % (iBead vs regular bead) (HLA-B*1301 (B13) (human)): -4%
Difference % (iBead vs regular bead) (HLA-B*0801 (B8) (human)): 18%
Difference % (iBead vs regular bead) (HLA-B*0702 (B7) (human)): 41%
Difference % (iBead vs regular bead) (HLA-B*1516 (B63) (human)): -5%
MFI [1]: 684 MFI
MFI [2]: 768 MFI
MFI [3]: 769 MFI
MFI [4]: 526 MFI
MFI [5]: 932 MFI
MFI [6]: 949 MFI
MFI [7]: 783 MFI
MFI [8]: 540 MFI
MFI [9]: 439 MFI
MFI [10]: 177 MFI
MFI [11]: 636 MFI
MFI [12]: 307 MFI
MFI [13]: 295 MFI
Difference % (iBead MFI against regular bead MFI) [14]: 68%
Difference % (iBead MFI against regular bead MFI) [15]: 41%
Difference % (iBead MFI against regular bead MFI) [16]: 31%
MFI [17]: 470 MFI
MFI [18]: 0 MFI
Substance: IVIg Sandoglobulin (Novartis, Basel, Switzerland) (antibody)

MFI [19]: 987 MFI
MFI [20]: 271 MFI
MFI [21]: 393 MFI
MFI [22]: 9970 MFI
MFI [23]: 2200 MFI
MFI [24]: 4970 MFI
MFI [25]: 2440 MFI
MFI [26]: 0 MFI
MFI [27]: 956 MFI
MFI [28]: 154 MFI
MFI [29]: 54 MFI
MFI [30]: 364 MFI
MFI [31]: 964 MFI
MFI [32]: 4000 MFI
MFI [33]: 1000 MFI
MFI [34]: 0 MFI
MFI [35]: 1670 MFI
Difference % (iBead against regular bead) [36]: -100%
Substance: Octagam (IVIg, Octapharma, Lachen, Switzerland) (antibody)
